Patent US20250092158A1

The binders below were run against human Quiescin Sulfhydryl Oxidase 1 (QSOX1) (human) (UniProt O00391) (assay: oxygen electrode assay of QSOX1 (25 nM) on DTT (200 uM), antibody varied, Morrison tight-binding fit).
Sequence of UniProt O00391 (O00391 33-546): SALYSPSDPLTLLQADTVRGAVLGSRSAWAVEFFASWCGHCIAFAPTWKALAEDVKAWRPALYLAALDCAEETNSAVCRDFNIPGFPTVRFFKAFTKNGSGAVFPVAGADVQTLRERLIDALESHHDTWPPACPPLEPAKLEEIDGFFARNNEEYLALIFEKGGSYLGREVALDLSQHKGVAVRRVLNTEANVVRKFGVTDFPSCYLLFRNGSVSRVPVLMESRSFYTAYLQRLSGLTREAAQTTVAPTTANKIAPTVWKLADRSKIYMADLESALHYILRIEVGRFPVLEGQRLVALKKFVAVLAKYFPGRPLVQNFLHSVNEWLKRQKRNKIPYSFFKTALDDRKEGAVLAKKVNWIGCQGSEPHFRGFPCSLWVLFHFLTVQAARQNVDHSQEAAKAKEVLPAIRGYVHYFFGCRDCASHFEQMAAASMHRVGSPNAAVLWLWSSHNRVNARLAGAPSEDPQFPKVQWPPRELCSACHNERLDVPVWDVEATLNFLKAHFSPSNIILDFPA

Binder | Ki
humanized anti-QSOX1 antibody H3newK2 (antibody, human IgG1, kappa, V domains shown) VH: QVQLVESGGGLVQPGRSLRLSCTVSGFSLTGYGVNWFRQAPGKGLEWLGMIWGDGRTDYTASVKGRFTISRDGSKSIAYLQMNSLKTEDTAVYYCASDYYGSGSFAYWGQGTLVTVSS VL: DIVMTQTPLSLSVTPGQPASISCKASQDVSTAVAWYLQKPGQPPQLLIHSASYRYTGVPDRFSGSGSGTDFTLKISRVEAEDVGVYYCQQHYSIPLTFGPGTKVDIKR | < 1 nM
humanized anti-QSOX1 antibody H3newK4 (antibody, human IgG1, kappa, V domains shown) VH: QVQLVESGGGLVQPGRSLRLSCTVSGFSLTGYGVNWFRQAPGKGLEWLGMIWGDGRTDYTASVKGRFTISRDGSKSIAYLQMNSLKTEDTAVYYCASDYYGSGSFAYWGQGTLVTVSS VL: DIVMTQSPDSLAVSLGERATINCKASQDVSTAVAWYQQKPGQPPKLLIHSASYRYTGVPDRFSGSGSGTDFTLTISSLQAEDVAVYYCQQHYSIPLTFGQGTRLEIKR | < 1 nM

The next lines start with the values.

Ki | Binder
< 1 nM | humanized anti-QSOX1 antibody H3K4 (antibody, human IgG1, kappa, V domains shown) VH: QVQLVESGGGLVQPGGSLRLSCSVSGFSLTGYGVNWVRQAPGKGLEWLGMIWGDGRTDYADSVKGRFTISRDNSKNTLYLQMSSLRAEDTAVYYCASDYYGSGSFAYWGQGTLVTVSS VL: DIVMTQSPDSLAVSLGERATINCKASQDVSTAVAWYQQKPGQPPKLLIHSASYRYTGVPDRFSGSGSGTDFTLTISSLQAEDVAVYYCQQHYSIPLTFGQGTRLEIKR
< 1 nM | humanized anti-QSOX1 antibody H2bK4 (antibody, human IgG1, kappa, V domains shown) VH: QITLKESGPTLVKPTQTLTLTCTVSGFSLTGYGVNWIRQPPGKALEWLGMIWGDGRTDYSPSLKSRLTITKDTSKNQVVLTMTNMDPVDTATYYCASDYYGSGSFAYWGRGTLVTVSS VL: DIVMTQSPDSLAVSLGERATINCKASQDVSTAVAWYQQKPGQPPKLLIHSASYRYTGVPDRFSGSGSGTDFTLTISSLQAEDVAVYYCQQHYSIPLTFGQGTRLEIKR
